Measured values as given in US9981005 (dated 2018).
Where two headings read alike, the source gives them in different places. Where no end group is shown, it is not given here. [ ]: non-standard residue; d: D form. pT = C[C@@H](OP(=O)(O)O)[C@H](N)C(=O)O; pS = N[C@@H](COP(=O)(O)O)C(=O)O; Flu = fluorescein

Assays:
[1] = molecular target: T1, Skp1-FBXW7 complex (human FBXW7 residues 263-707 with truncated Skp1) (UniProt P63208 1-163)
[2] = molecular target: T1, Skp1-FBXW7 complex (human FBXW7 …); experiment: fluorescence polarisation

Binder | Kd [1] [nM] | Kd [2] [nM]
Flu-VPP[pT]PPGSH [Flu-VPPpTPPGSH (singly phosphorylated fluorescein-tagged DISC1 phosphodegron peptide)] | 2300 | 
Flu-VPP[pT]PPG[pS]H [Flu-VPPpTPPGpSH (doubly phosphorylated fluorescein-tagged DISC1 phosphodegron peptide)] | 1200 | 
AKKAMLSEQNRASPLPSGLLTPPQSGKKQSS (other) [Cyclin E (test agent of the FP assay)] |  | 2000
